The supplement of paper PMC7877785
± gives the uncertainty stated by the source.

Experiment: self-splicing fitness, log relative to wild type (ln ratio); higher = more splicing; Tetrahymena group I intron in knt gene, E. coli kanamycin selection, DiMSum; sequences stand for … in CUCUCU…GGAGGGAAAAGUUAUCAGGCAUGCACCUGGUAGCUAGUCUUUAAACCAAUAGAUUGCAUCGGUUUAAAAGGCAAGACCGUCAAAUUGCGGGAAAGGGGUCAACAGCCGUUCAGUACCAAGUCUCAGGGGAAACUUUGAGAUGGCCUUGCAAAGGGUAUGGUAAUAAGCUGACGGACAUGGUCCUAACCACGCAGCCAAGUCCUAAGUCAACAGAUCUUCUGUUGAUAUGGAUGCAGUUCACAGACUAAAUGUCGGUCGGGGAAGAUGUAUUCUUCUCAUAAGAUAUAGUCGGACCUCUCCUUAAUGGGAGCUAGCGGAUGAAGUGAUGCAACACUGGAGCCGCUGGGAACUAAUUUGUAUGCGAAAGUAUAUUGAUUAGUUUUGGAGUACUCGUGGUCG
Method in brief: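 Library with all eight P1ex-region intron nucleotides randomised, intron inside the knt kanamycin-resistance gene on pET-22b(+), in E. coli BL21(DE3). Cells grew overnight at 37°C or 30°C on LB agar with or without 25 μg/mL kanamycin (plus 100 μg/mL carbenicillin, 50 μM IPTG, 0.2% rhamnose), in six replicate transformations. Pooled colonies were amplicon-sequenced on Illumina HiSeq 2500. DiMSum fitness is the error-weighted combination of wild-type-normalised replicate fold changes, kanamycin versus none.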

Row | Sequence | self-splicing fitness (ln) (30 °C) | self-splicing fitness (ln) (37 °C)
1 | AGUAAGCAAUAUUACGGAAA | -3.26 ± 0.41 | -0.269 ± 0.23
2 | AGUAAGCAAUAUUACGGACG | -0.782 ± 0.093 | -0.415 ± 0.12
3 | AGUAAGCAAUAUUACGGAUC | -1.39 ± 0.12 | -1.31 ± 0.1
4 | AGUAAGCAAUAUUACGGCCU | 0.0223 ± 0.17 | -0.034 ± 0.26
5 | AGUAAGCAAUAUUACGGCGC | -1.02 ± 0.11 | -0.433 ± 0.13
6 | AGUAAGCAAUAUUACGGGCC | -1.48 ± 0.2 | -0.26 ± 0.15
7 | AGUAAGCAAUAUUACGGGGC | -3.29 ± 0.36 | -2.29 ± 0.34
8 | AGUAAGCAAUAUUACGGUAG | -3.89 ± 0.23 | -3.44 ± 0.29
9 | AGUAAGCAAUAUUACGGUUU | -1.45 ± 0.092 | -0.554 ± 0.11
10 | AGUAAGCAAUAUUACGUAUC | -3.99 ± 0.33 | -0.681 ± 0.23
11 | AGUAAGCAAUAUUACGUGCA | -1.36 ± 0.085 | -0.712 ± 0.092
12 | AGUAAGCAAUAUUACGUGGA | -3.8 ± 0.4 | -3.85 ± 0.39
13 | AGUAAGCAAUAUUACGUUAC | -3.26 ± 0.24 | -2.61 ± 0.27
14 | AGUCAGCAAUAUUACGAAAA | -1.63 ± 0.17 | -1.3 ± 0.2
15 | AGUCAGCAAUAUUACGAAGC | -3.56 ± 0.18 | -2.03 ± 0.17
16 | AGUCAGCAAUAUUACGACUU | -2.13 ± 0.11 | -1.96 ± 0.19
17 | AGUCAGCAAUAUUACGAGAU | -2.61 ± 0.11 | -1.76 ± 0.1
18 | AGUCAGCAAUAUUACGAGCA | -0.935 ± 0.12 | -0.0144 ± 0.14
19 | AGUCAGCAAUAUUACGAUCA | 0.171 ± 0.099 | 0.226 ± 0.11
20 | AGUCAGCAAUAUUACGAUUC | -3.27 ± 0.14 | -1.05 ± 0.1
21 | AGUCAGCAAUAUUACGCAUC | -1.32 ± 0.1 | -0.329 ± 0.12
22 | AGUCAGCAAUAUUACGCCCG | -0.925 ± 0.12 | -1.52 ± 0.17

Row | Sequence | self-splicing fitness (ln) (30 °C) | self-splicing fitness (ln) (37 °C)
23 | AGUCAGCAAUAUUACGCUCU | -1.01 ± 0.2 | -0.342 ± 0.21
24 | AGUCAGCAAUAUUACGGAAA | -2.78 ± 0.19 | -2 ± 0.15
25 | AGUCAGCAAUAUUACGGCCA | -0.485 ± 0.14 | -0.0722 ± 0.2
26 | AGUCAGCAAUAUUACGGGAG | -3.52 ± 0.15 | -1.41 ± 0.11
27 | AGUCAGCAAUAUUACGGGGG | -3.61 ± 0.21 | -2.6 ± 0.22
28 | AGUCAGCAAUAUUACGGUGG | -3.01 ± 0.26 | -1.79 ± 0.24
29 | AGUCAGCAAUAUUACGUACG | -0.473 ± 0.08 | -0.0481 ± 0.1
30 | AGUCAGCAAUAUUACGUCGA | -0.487 ± 0.1 | -0.568 ± 0.13
31 | AGUCAGCAAUAUUACGUUUG | -4.04 ± 0.21 | -2.53 ± 0.19
32 | AGUGAGCAAUAUUACGAACG | -0.686 ± 0.094 | -0.206 ± 0.15
33 | AGUGAGCAAUAUUACGACGU | -0.966 ± 0.059 | -0.385 ± 0.066
34 | AGUGAGCAAUAUUACGAGAA | -1.8 ± 0.48 | 
35 | AGUGAGCAAUAUUACGCAAU | -2.23 ± 0.4 | -0.698 ± 0.43
36 | AGUGAGCAAUAUUACGCAGA |  | -1.35 ± 0.28
37 | AGUGAGCAAUAUUACGCCGA | -1.82 ± 0.31 | -2.36 ± 0.4
38 | AGUGAGCAAUAUUACGCGGC | -3.16 ± 0.44 | 
39 | AGUGAGCAAUAUUACGGACG | -1.16 ± 0.15 | -1.45 ± 0.21
40 | AGUGAGCAAUAUUACGGCGU | -1.08 ± 0.071 | -0.465 ± 0.084
41 | AGUGAGCAAUAUUACGGGUA | -3.22 ± 0.23 | -1.61 ± 0.26
42 | AGUGAGCAAUAUUACGUAAU | -3.13 ± 0.15 | -1.7 ± 0.15
43 | AGUGAGCAAUAUUACGUAGC | -1.99 ± 0.14 | -3.39 ± 0.39
